Assay results published in the supplement of paper PMC9112550, “Optimization of the antimicrobial peptide Bac7 by deep mutational scanning” (BMC Biology, 2022).

Tested on: Escherichia coli TOP10
Experiment: shrunken log2 fold change of peptide-encoding DNA abundance (4.5 h post-induction vs induction); higher = less antimicrobial activity (less host growth inhibition)
Details: time post-induction: 4.5 h; library: site-saturation at positions 5, 18, 19, 20
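Also: peptides expressed intracellularly from a pBAD plasmid library in pooled LB shake-flask culture, induced with 0.3% L-arabinose, DNA abundance read by NGS, three biological replicates, DESeq2 with apeglm shrinkage.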

Row | Sequence | shrunken log2 fold change
1 | RRIRKRPPRLPRPRPRPMCQPRP | -0.0286
2 | RRIRCRPPRLPRPRPRPGRMPRP | 0.141
3 | RRIRKRPPRLPRPRPRPIYIPRP | -0.127
4 | RRIRARPPRLPRPRPRPWKPPRP | 4.26e-05
5 | RRIRMRPPRLPRPRPRPHGLPRP | 0.0212
6 | RRIRRRPPRLPRPRPRPRAIPRP | 0.405
7 | RRIRNRPPRLPRPRPRPGLIPRP | 0.16
8 | RRIRRRPPRLPRPRPRPPRSPRP | 0.904
9 | RRIRGRPPRLPRPRPRPSFIPRP | -0.166
10 | RRIRKRPPRLPRPRPRPIIVPRP | 0.0373
11 | RRIRMRPPRLPRPRPRPNEKPRP | 0.0356
12 | RRIRKRPPRLPRPRPRPPMRPRP | 0.918
13 | RRIRVRPPRLPRPRPRPESQPRP | -0.0489
14 | RRIRDRPPRLPRPRPRPQDRPRP | -0.0933
15 | RRIRSRPPRLPRPRPRPNGIPRP | 0.033
16 | RRIRARPPRLPRPRPRPKVFPRP | 0.193
17 | RRIRRRPPRLPRPRPRPSALPRP | 0.392
18 | RRIRDRPPRLPRPRPRPHLTPRP | 0.176
19 | RRIRFRPPRLPRPRPRPYEIPRP | -0.241
20 | RRIRPRPPRLPRPRPRPNMWPRP | -0.084
21 | RRIRARPPRLPRPRPRPYFLPRP | -0.557
22 | RRIRLRPPRLPRPRPRPNCWPRP | 0.388
23 | RRIRGRPPRLPRPRPRPWWHPRP | -0.22
24 | RRIRARPPRLPRPRPRPWLHPRP | 0.144
25 | RRIRMRPPRLPRPRPRPWECPRP | 1.1

Row | Sequence | shrunken log2 fold change
26 | RRIRHRPPRLPRPRPRPSHDPRP | -0.0756
27 | RRIRSRPPRLPRPRPRPLLSPRP | -0.051
28 | RRIRARPPRLPRPRPRPLKDPRP | 0.0838
29 | RRIRLRPPRLPRPRPRPCPQPRP | -0.391
30 | RRIRMRPPRLPRPRPRPGWMPRP | 0.622
31 | RRIRQRPPRLPRPRPRPIERPRP | -0.0353
32 | RRIRIRPPRLPRPRPRPQLQPRP | -0.0769
33 | RRIRQRPPRLPRPRPRPNKKPRP | -0.0406
34 | RRIRQRPPRLPRPRPRPADCPRP | -0.00699
35 | RRIRYRPPRLPRPRPRPEDWPRP | -0.252
36 | RRIRGRPPRLPRPRPRPCYPPRP | 0.0523
37 | RRIRMRPPRLPRPRPRPKHMPRP | 0.171
38 | RRIRCRPPRLPRPRPRPKIAPRP | 0.0102
39 | RRIRVRPPRLPRPRPRPYFSPRP | -0.267
40 | RRIRHRPPRLPRPRPRPPVLPRP | 0.0936
41 | RRIRLRPPRLPRPRPRPEMYPRP | -0.00133
42 | RRIRPRPPRLPRPRPRPSWWPRP | 0.394
43 | RRIRYRPPRLPRPRPRPWFMPRP | -0.356
44 | RRIRGRPPRLPRPRPRPREWPRP | 0.843
45 | RRIRFRPPRLPRPRPRPGVQPRP | 0.119
46 | RRIRKRPPRLPRPRPRPCGRPRP | 0.0548
47 | RRIRDRPPRLPRPRPRPTSKPRP | 0.168
48 | RRIRERPPRLPRPRPRPIGHPRP | -0.244
49 | RRIRIRPPRLPRPRPRPWGNPRP | -0.803
50 | RRIRHRPPRLPRPRPRPEIQPRP | -0.102

Row | Sequence | shrunken log2 fold change
51 | RRIRGRPPRLPRPRPRPCPAPRP | 0.383
52 | RRIRDRPPRLPRPRPRPRNHPRP | -0.641
53 | RRIRNRPPRLPRPRPRPFDHPRP | -0.0345
54 | RRIRDRPPRLPRPRPRPERNPRP | 0.278
55 | RRIRARPPRLPRPRPRPVEPPRP | 0.297
56 | RRIRNRPPRLPRPRPRPHLDPRP | 0.118
57 | RRIRQRPPRLPRPRPRPMRSPRP | 0.196
58 | RRIRDRPPRLPRPRPRPIFKPRP | -0.118
59 | RRIRHRPPRLPRPRPRPNWRPRP | 0.0926
60 | RRIRPRPPRLPRPRPRPQQIPRP | -0.124
61 | RRIRQRPPRLPRPRPRPYGAPRP | -0.0876
62 | RRIRRRPPRLPRPRPRPMYLPRP | -0.0501
63 | RRIRWRPPRLPRPRPRPPYCPRP | -0.0779
64 | RRIRARPPRLPRPRPRPCKVPRP | -0.164
65 | RRIRMRPPRLPRPRPRPGSRPRP | 0.991
66 | RRIRPRPPRLPRPRPRPPYEPRP | -0.145
67 | RRIRRRPPRLPRPRPRPGHEPRP | 0.00414
68 | RRIRVRPPRLPRPRPRPSWAPRP | 0.0598
69 | RRIRKRPPRLPRPRPRPGPFPRP | 0.56
70 | RRIRTRPPRLPRPRPRPKWCPRP | 0.00669
71 | RRIRKRPPRLPRPRPRPYNMPRP | -0.352
72 | RRIRTRPPRLPRPRPRPWRFPRP | -0.0156
73 | RRIRDRPPRLPRPRPRPRGLPRP | 0.825
74 | RRIRHRPPRLPRPRPRPVFWPRP | 0.0698
75 | RRIRCRPPRLPRPRPRPQQQPRP | 0.339

Row | Sequence | shrunken log2 fold change
76 | RRIRFRPPRLPRPRPRPHTFPRP | -0.778
77 | RRIRCRPPRLPRPRPRPSDSPRP | -0.34
78 | RRIRMRPPRLPRPRPRPQLGPRP | -0.0543
79 | RRIRIRPPRLPRPRPRPWMTPRP | -0.53
80 | RRIRKRPPRLPRPRPRPCEKPRP | 0.492
81 | RRIRLRPPRLPRPRPRPNMPPRP | -0.265
82 | RRIRKRPPRLPRPRPRPCRDPRP | -0.136
83 | RRIRQRPPRLPRPRPRPNFQPRP | -0.198
84 | RRIRIRPPRLPRPRPRPHFLPRP | -1.42
85 | RRIRARPPRLPRPRPRPAPVPRP | 0.627
86 | RRIRFRPPRLPRPRPRPDELPRP | 0.0112
87 | RRIRKRPPRLPRPRPRPRGGPRP | 0.848
88 | RRIRRRPPRLPRPRPRPVEAPRP | 0.118
89 | RRIRTRPPRLPRPRPRPTPHPRP | 0.283
90 | RRIRDRPPRLPRPRPRPGTTPRP | 0.427
91 | RRIRTRPPRLPRPRPRPGCMPRP | -0.0219
92 | RRIRRRPPRLPRPRPRPNLMPRP | 0.85
93 | RRIRVRPPRLPRPRPRPEVNPRP | -0.0796
94 | RRIRRRPPRLPRPRPRPFVPPRP | 0.127
95 | RRIRKRPPRLPRPRPRPMICPRP | 0.0303
96 | RRIRPRPPRLPRPRPRPLLLPRP | -0.208
97 | RRIRHRPPRLPRPRPRPEFRPRP | 0.00953
98 | RRIRARPPRLPRPRPRPWNLPRP | -0.0204
99 | RRIRQRPPRLPRPRPRPQMRPRP | -0.0736
100 | RRIRQRPPRLPRPRPRPWADPRP | 0.00911

Row | Sequence | shrunken log2 fold change
101 | RRIRGRPPRLPRPRPRPAQYPRP | 0.233
102 | RRIRFRPPRLPRPRPRPFINPRP | -0.874
103 | RRIRCRPPRLPRPRPRPCYEPRP | -0.663
104 | RRIRERPPRLPRPRPRPGFVPRP | 0.755
105 | RRIRMRPPRLPRPRPRPWTYPRP | -0.0551
106 | RRIRSRPPRLPRPRPRPPPGPRP | 0.891
107 | RRIRKRPPRLPRPRPRPDKLPRP | 0.367
108 | RRIRPRPPRLPRPRPRPKCRPRP | 0.00849
109 | RRIRMRPPRLPRPRPRPYFMPRP | -0.898
110 | RRIRWRPPRLPRPRPRPMGDPRP | 0.676
111 | RRIRKRPPRLPRPRPRPVNCPRP | -0.112
112 | RRIRKRPPRLPRPRPRPDLVPRP | 0.662
113 | RRIRARPPRLPRPRPRPGCRPRP | 0.609
114 | RRIRLRPPRLPRPRPRPPDEPRP | 0.264
115 | RRIRNRPPRLPRPRPRPKNYPRP | -0.752
116 | RRIRQRPPRLPRPRPRPIFCPRP | 0.276
117 | RRIRKRPPRLPRPRPRPSQSPRP | 0.28
118 | RRIRFRPPRLPRPRPRPTWGPRP | 0.132
119 | RRIRTRPPRLPRPRPRPKWDPRP | -0.0626
120 | RRIRERPPRLPRPRPRPDMRPRP | -3.48e-05
121 | RRIRERPPRLPRPRPRPEHDPRP | -0.0107
122 | RRIRPRPPRLPRPRPRPVIDPRP | -0.0426
123 | RRIRPRPPRLPRPRPRPDFAPRP | 0.0996
124 | RRIRKRPPRLPRPRPRPWNVPRP | 0.0194
125 | RRIRIRPPRLPRPRPRPVGIPRP | 0.16
